Reference: patent US20160108091A1

Biological target: human APJ receptor (hAPJ) (human) (UniProt P35414)
Assay: cell-based or functional assay

Sequence of human APJ receptor (hAPJ) (human) (P35414 whole entry): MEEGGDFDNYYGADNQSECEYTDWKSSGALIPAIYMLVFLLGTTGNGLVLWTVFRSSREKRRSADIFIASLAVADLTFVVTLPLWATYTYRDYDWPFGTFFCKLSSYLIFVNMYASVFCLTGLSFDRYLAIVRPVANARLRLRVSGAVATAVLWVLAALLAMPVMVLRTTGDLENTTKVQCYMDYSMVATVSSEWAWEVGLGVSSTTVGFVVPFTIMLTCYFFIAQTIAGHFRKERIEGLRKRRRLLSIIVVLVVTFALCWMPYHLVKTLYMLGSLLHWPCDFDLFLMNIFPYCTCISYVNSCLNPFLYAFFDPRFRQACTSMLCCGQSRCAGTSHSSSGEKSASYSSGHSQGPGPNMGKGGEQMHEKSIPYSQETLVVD

## Conjugate of AH-Fc with apelin cyclic peptide: AH-Fc-BCN clicked to NH2-AzidoLys-GGGGS-Q-R-P-C-L-S-C-K-G-P-Dnle-Phenethylamine (from UniProt P0DOX5 223-449) (Fc fusion)
  hAPJ Ca^2+ Flux EC50: 16.3 nM

## Fc-Apelin conjugate using sortase: Fc-GGGGS-LPET-GGGGG-QRPC*LSC*KGP(D-Nle)Phenethylamine (Fc fusion)
  hAPJ Ca^2+ Flux EC50: 28.9 nM
